Test results: publication doi:10.1101/2025.05.09.653063 (bioRxiv, 2025)
Residue numbers refer to the chain shown, from its start. Numbers in names are those of the source.

B1: His-tagged wild type PsmA (natural protein, Saccharolobus islandicus REY15A, UniProt C3MQ43 1-241, looked up)
chain: MAFGPAAMGYDRAITIFSPDGSLYQVDYAFEAVKKGWTAIGIKSKSGVVIASEKRKAQSLLDVDSIEKVFLIDDHVGCSFAGLASDGRVLIDYARNIALQHRLIYDEPVSIDYLTKSVADVKQMYTQHGGVRPFGVALVIAGIDKSVPKLYMTEPSGQYMPYQAVAIGQGYYTATEFLEKNYKEDLTIEDTILLALKALSATLKPNEKLTPNTVEIGYASTQTGLFLKMTSEDKNMYLQKL
B2: His-tagged PsmA S200D (natural protein, Saccharolobus islandicus REY15A, UniProt C3MQ43 1-241, looked up)
chain: B1 chain with S200D
B3: His-tagged PsmA T213E (natural protein, Saccharolobus islandicus REY15A, UniProt C3MQ43 1-241, looked up)
chain: B1 chain with T213E

Molecular target: the molecule itself
Test: focused ion beam electron microscopy

Stoichiometry N, 14:
B1
B2
B3
